Laboratory results from article PMC12049912 (2025).

T1: p68 S551F (mp68; DDX5 S551F) peptide on H-2Kb (mouse)
T1 peptide: SNFVFAGI


Tests used:
[1] = biological target: T1, p68 S551F (mp68; DDX5 S551F) peptide on …; experiment: multimer staining
[2] = biological target: T1, p68 S551F (mp68; DDX5 S551F) peptide on …; experiment: cytokine release

Row | binding result [1] | binding result [2] | Binder
1 | no recognition | – | T3-3 (TCR) alpha TRAV13-4 TRAJ30 CDR3: CAMEHDTNAYKVIF beta TRBV12-1 TRBJ2-1 CDR3: CASSLRGYAEQFF
2 | no recognition | – | T1-3 (TCR) alpha TRAV19 TRAJ40 CDR3: CAAGGFNTGNYKYVF beta TRBV19 TRBJ2-7 CDR3: CASSIRQGSGEQYF
3 | no recognition | – | T3-3/2 (TCR) alpha TRAV19 TRAJ40 CDR3: CAAGGVNTGNYKYVF beta TRBV12-1 TRBJ2-1 CDR3: CASSLRGYAEQFF
4 | – | recognises | 1D9 (TCR) alpha TRAV1 TRAJ30 CDR3: CAVRSDTNAYKVIF beta TRBV19 TRBJ2-7 CDR3: CASSKRLSSYEQYF
